The results in this text go back to publication PMC2119758.

The test deals with rabbit muscle F-actin (polymerized rabbit muscle actin) (rabbit) (UniProt P68135). The test is described as follows: co-sedimentation.

In turn, “GST.p80 fusion protein (cortactin p80 residues 55-526) (domain or fragment)” displayed a stoichiometry N (actin monomers per GST.p80) of 14.

The substance “bacterially expressed cortactin (p80 residues 55-526) after removal of GST with thrombin (domain or fragment)” had a fold increase of affinity against GST.p80 of 2 fold.
